Common to all, as to assay: ATPLITE cell viability, TRAIL and compound X with or without anti-human TNFα antibody
Common to all, as to type: cell-based

Experiment [1] deals with HCT116 colon cancer cells. The method, then: (§1) Cells were seeded in flat-bottom 96-well plates (clear bottom, white walls) at a concentration of 1×10^4 cells/well and incubated overnight at 37° C., 5% CO2. The following day, cells were stimulated with TRAIL at a concentration ranging from 0.24 ng/ml to 1 μg/ml (4-fold dilutions) in combination with IAP inhibitor compound X at a concentration ranging from 0.01 nM to […] (10-fold dilutions).
(§2) A blocking antibody to human TNFα (R&D Systems, Minneapolis, Minn.) was added to some cultures at a final concentration of 5 μg/ml two hours before the addition of the combination of TRAIL and compound X. Final culture volumes were 100 μl
(§3) After 48 hours, cell viability was determined using the ATPLITE™ assay, an adenosine triphosphate (ATP) monitoring system based on firefly (Photinus pyralis) luciferase (Perkin Elmer, Waltham, Mass.) according to the manufacturer's recommendations. Relative light units (RLU) were measured using an LJL Biosystems Analyst HT plate reader (Molecular Devices, Sunnyvale, Calif.). The percent of surviving cells was calculated as follows: (experimental RLU/control RLU)×100. The control RLU was determined by testing untreated cells.

The test system of experiment [2] is SKOV-3 ovarian cancer cells. Conditions: SKOV-3, 48 hours. As to the method: as §1, §2, §3
The test system of experiment [3] is A375 melanoma cells. Particulars: A375, 48 hours. As to the method: as §1, §2, §3

B1: TRAIL: TNF-related apoptosis-inducing ligand (TRAIL), TRAIL receptor agonist (protein, UniProt P50591 1-281, looked up)
Tumor necrosis factor ligand …: MAMMEVQGGPSLGQTCVLIVIFTVLLQSLCVAVTYVYFTNELKQMQDKYSKSGIACFLKEDDSYWDPNDEESMNSPCWQVKWQLRQLVRKMILRTSEETISTVQEKQQNISPLVRERGPQRVAAHITGTRGRSNTLSSPNSKNEKALGRKINSWESSRSGHSFLSNLHLRNGELVIHEKGFYYIYSQTYFRFQEEIKENTKNDKQMVQYIYKYTSYPDPILLMKSARNSCWSKDAEYGLYSIYQGGIFELKENDRIFVSVTNEHLIDMDHEASFFGAFLVG
Turning to B1, the “single agent-induced cell death” value is recorded as “some sensitivity” in experiment [1] (HCT116, 48 hours) and “resistant” in experiment [2]. Also, in experiment [1] (HCT116, TRAIL 1 μg/ml, 48 hours), the “surviving cells (percent of control)” value is on record as 40%. Also, the single agent killing entry in experiment [3] is reported as “partialy resistant”.

The record behind these values is patent US20110287001A1, “METHOD OF TREATMENT” (TETRALOGIC PHARMACEUTICALS, priority 2008, published 2011).
